Measurements from IntAct's records for PubMed 27927196.

B1: Lipopolysaccharide-induced tumor necrosis factor-alpha factor (Homo sapiens), Q99732 (parent)
chain: MSVPGPYQAATGPSSAPSAPPSYEETVAVNSYYPTPPAPMPGPTTGLVTGPDGKGMNPPSYYTQPAPIPNNNPITVQTVYVQHPITFLDRPIQMCCPSCNKMIVSQLSYNAGALTWLSCGSLCLLGCIAGCCFIPFCVDALQDVDHYCPNCRALLGTYKRL

Variants of: B1
Settings: with nedd4_human NEDD4, P46934
Chain of nedd4_human NEDD4, P46934 (P46934 whole entry): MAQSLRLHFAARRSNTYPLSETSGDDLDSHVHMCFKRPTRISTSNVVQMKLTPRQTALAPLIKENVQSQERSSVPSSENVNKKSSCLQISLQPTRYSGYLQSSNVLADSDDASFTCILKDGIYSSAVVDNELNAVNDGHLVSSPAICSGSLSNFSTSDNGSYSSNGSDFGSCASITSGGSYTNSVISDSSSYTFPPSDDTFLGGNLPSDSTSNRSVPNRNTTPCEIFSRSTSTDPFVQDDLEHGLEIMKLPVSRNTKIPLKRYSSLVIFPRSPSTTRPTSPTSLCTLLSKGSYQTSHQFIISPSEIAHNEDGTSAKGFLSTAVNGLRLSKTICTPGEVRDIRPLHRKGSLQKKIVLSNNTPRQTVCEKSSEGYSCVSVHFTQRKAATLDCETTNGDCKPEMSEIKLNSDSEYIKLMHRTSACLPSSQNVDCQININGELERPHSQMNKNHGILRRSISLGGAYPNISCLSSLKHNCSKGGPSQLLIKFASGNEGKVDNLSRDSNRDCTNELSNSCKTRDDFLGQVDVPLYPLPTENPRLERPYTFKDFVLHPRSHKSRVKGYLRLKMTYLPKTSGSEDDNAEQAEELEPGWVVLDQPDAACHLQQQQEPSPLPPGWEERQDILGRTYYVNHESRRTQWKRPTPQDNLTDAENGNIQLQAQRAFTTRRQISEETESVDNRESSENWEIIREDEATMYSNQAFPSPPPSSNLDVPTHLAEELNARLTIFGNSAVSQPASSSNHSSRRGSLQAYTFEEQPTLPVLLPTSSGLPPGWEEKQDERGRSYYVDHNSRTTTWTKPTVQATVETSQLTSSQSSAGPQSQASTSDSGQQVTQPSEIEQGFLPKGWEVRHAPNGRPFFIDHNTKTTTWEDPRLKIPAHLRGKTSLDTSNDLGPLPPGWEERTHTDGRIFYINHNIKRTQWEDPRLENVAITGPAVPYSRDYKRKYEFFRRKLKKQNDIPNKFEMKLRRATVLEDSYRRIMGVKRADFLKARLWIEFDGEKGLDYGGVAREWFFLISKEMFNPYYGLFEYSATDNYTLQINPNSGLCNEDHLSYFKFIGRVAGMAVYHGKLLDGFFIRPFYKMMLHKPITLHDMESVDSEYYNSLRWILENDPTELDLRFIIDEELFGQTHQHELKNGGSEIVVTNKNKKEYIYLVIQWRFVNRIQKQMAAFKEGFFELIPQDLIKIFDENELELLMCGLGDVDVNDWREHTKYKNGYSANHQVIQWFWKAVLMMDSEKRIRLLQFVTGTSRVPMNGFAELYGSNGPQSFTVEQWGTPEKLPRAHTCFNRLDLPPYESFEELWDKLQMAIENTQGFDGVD

Row | effect of a mutation on the interaction | Variant
1 | disrupting interaction strength | Y23A
2 | with no effect | Y61A
3 | disrupting interaction strength | Y23A;Y61A
